Results on 167 variants are retold here after the RNAGym collection of RNA variant scans (doi:10.7554/elife.80360).

B1: Twister Ribozyme (parent)
chain: AACACUGCCAAUGCCGGUCCCAAGCCCGGAUAAAAGUGGAGGGGGCGG

The variants in this series derive from B1. The experiment in a line: self-cleavage, relative activity (ratio to wild type); higher = more cleavage; co-transcriptional.
Take A10G G17U: the self-cleavage amounted to 0.388.
As to A4U G48A, the self-cleavage was 0.191.
For A23G A30C, the self-cleavage is 0.0761.
The same measure for G17A G36A: 0.141.
A35U A40U: the self-cleavage amounted to 0.253.
Then A10U C14A, with 0.824.
The same measure for U12G G13U: 0.836; for C25G G41A: 0.146; for U6G G44C: 0.234.
In the case of G36U C46G, the self-cleavage stood at 0.313.
Then A4C, with 0.218.
For the variant A34G A35C, the self-cleavage was determined as 0.742.
Then C8U U18C, with 0.0906; and G39A G43A, with 0.152; and U6C C8A, with 0.047.
The same measure for C14A G44C: 0.772; for U12C C26G: 0.179.
Regarding A10G U18C, the self-cleavage came out at 0.807.
In the case of C3G U6C, the self-cleavage was found to be 0.0367.
Then A11C G45C, with 0.581; and A10C G17U, with 0.408; and C27U G44C, with 0.777.
The same measure for C27U G44A: 0.84.
Then C19G A40U, with 0.0582.
Turning to G36U G44A, the self-cleavage was 0.717.
The same measure for G29A U37A: 0.569; for G16A A32G: 0.888; for A4U G17C: 0.0361.
Then C3G A22C, with 0.481; and A4C C26U, with 0.0418.
The same measure for A10U G13U: 0.489; for A10G U31C: 0.817.
Consider A23G U31C, for which the self-cleavage turned out to be 0.544.
The same measure for A23G U31G: 0.746.
The same measure for C8U G41A: 0.112.
The same measure for A33G: 0.96; for A33C: 0.975.
Consider A22U G39A, for which the self-cleavage was determined as 0.099.
As for C9A G45U, the self-cleavage was 0.232.
The same measure for C20G A32C: 0.078; for C9A G42A: 0.149.
Then C25A C26A, with 0.0988; and G16A U37A, with 0.457; and A11C U18A, with 0.159.
For G38U G48A, the self-cleavage stood at 0.854.
Turning to G24U U31C, the self-cleavage stood at 0.13.
Regarding A4U C21U, the self-cleavage was determined as 0.0656.
Then C26U G29U, with 0.204.
The same measure for C9U C46U: 0.729; for C9U C27G: 0.0911.
Turning to C14U A33C, the self-cleavage is 0.97.
Consider G7U C15U, for which the self-cleavage amounted to 0.101.
Then A23C A30U, with 0.264.
The same measure for A2C C21G: 0.0366; for C20G A34C: 0.0838; for A4G G16U: 0.839.
Then G39U G41C, with 0.121; and A1C G41C, with 0.14; and C5A A34U, with 0.182.
A4U G42A: the self-cleavage was 0.0876.
Take G41C G43U: the self-cleavage worked out at 0.153.
Then G36C G38C, with 0.217; and U6C U12A, with 0.663.
Then A23U G43A, with 0.118; and C5A A35C, with 0.655.
The same measure for A22C A40U: 0.152; for C5G C19G: 0.125.
On to G29U G39C, for which the self-cleavage came out at 0.116.
Then C25A A33G, with 0.079.
Then C26G G38C, with 0.202; and U12A C20G, with 0.16.
Turning to G41U G47C, the self-cleavage is 0.209.
A1G C5A: the self-cleavage is 0.224.
Then G44C G47C, with 0.353; and G24C A40G, with 0.0575; and G28C G38A, with 0.743.
The same measure for C19A G39C: 0.126; for C3G A11U: 0.762; for U6G G17C: 0.0484.
The same measure for G24C G43A: 0.0738; for G7A A11G: 0.48.
In the case of G17U G28C, the self-cleavage was 0.0949.
The same measure for G39A G48A: 0.388; for A22C U31C: 1.12; for U37A G45C: 0.323.
Then A10C G38U, with 0.832; and G28C A32G, with 0.734.
Then A11G U18C, with 0.382; and G13U U37C, with 0.133; and U31C G48U, with 1.11.
Take C8G A23C: the self-cleavage was determined as 0.0689.
For A40C G44A, the self-cleavage was 0.298.
The same measure for A40G C46A: 0.164; for C8A A30C: 0.147.
The same measure for C5U A11G: 0.77; for C14U G48U: 1.17.
Then U31G G45C, with 0.653.
With C14A G41C, the self-cleavage was found to be 0.294.
Regarding C8U A33C, the self-cleavage came to 0.447.
The same measure for C15G A30U: 0.108; for G17U C46A: 0.274.
The same measure for A23G A33G: 0.281; for A4G C46A: 0.785; for A4C C25U: 0.058.
Then C8U A40G, with 0.172; and G16C C19G, with 0.1.
For C14A U37A, the self-cleavage stood at 0.711.
The same measure for C9U A11U: 0.84; for C8U A30U: 0.662; for C5U G47U: 0.691.
The same measure for C21U: 0.129.
Then G36C G47A, with 0.183; and C3A C9U, with 0.0898; and A23C U31A, with 0.363.
Consider G28C A34C, for which the self-cleavage was determined as 0.154.
The same measure for A4G A33C: 0.721.
Then U6A G43C, with 0.172.
The same measure for A34U G48A: 0.703; for U6A C25A: 0.0712; for A2U C27G: 0.126.
Turning to C9G G36A, the self-cleavage worked out at 0.204.
With C27U U31G, the self-cleavage is 0.723.
The same measure for A2C U6G: 0.0861.
Then A33U G43C, with 0.101; and C19A C25G, with 0.0863; and C19A C25A, with 0.0869.
As for C15G G41C, the self-cleavage came out at 0.0823.
Then G7A C9G, with 0.0915.
The same measure for C27G G39A: 0.0704; for C3A A11U: 0.212; for A4C U37G: 0.623.
For the variant C19G G42A, the self-cleavage worked out at 0.0847.
Then G7U A40C, with 0.0967.
With A2G A30U, the self-cleavage amounted to 0.256.
As to A4C A23G, the self-cleavage is 0.0448.
Then A4U U12C, with 0.0758; and C14G G45A, with 0.113; and C14G G45U, with 0.101.
The same measure for C25U U37C: 0.133.
The same measure for C8G G16C: 0.0753; for A40U G44A: 0.155; for C3A U18G: 0.0709.
Turning to C3A U18C, the self-cleavage came to 0.0738.
In the case of A1G A32G, the self-cleavage amounted to 0.507.
Then A33G G48U, with 0.903.
The same measure for C8G A11U: 0.691.
For the variant C19A A40U, the self-cleavage is 0.16.
The same measure for A35U C46G: 0.927.
Then G13A G47C, with 0.272; and G28U G36A, with 0.388.
Consider G13A G48C, for which the self-cleavage is 0.91.
Then A22G G28C, with 0.215.
Then A4G U37C, with 0.99; and G17C A23U, with 0.0824.
Then A35U G42C, with 0.539.
Turning to C5G G38U, the self-cleavage came to 0.165.
Consider U6A C21A, for which the self-cleavage was 0.107.
The same measure for G13U U31A: 0.43; for U31G G44C: 0.974.
Then A40G G45U, with 0.147; and U12C G38U, with 0.781; and A1U G42A, with 0.0707.
The same measure for A4U C19G: 0.092.
As to G7C C9A, the self-cleavage amounted to 0.0747.
Then C27A G44C, with 0.298; and A34U U37A, with 0.368.
Then G7A G48C, with 0.457.
